In US20200255846A1 (INSTITUTE OF GENETICS AND DEVELOPMENTAL BIOLOGY CHINESE …, published 2020):

Target: nYFP-OsCaM1-1 (rice calmodulin OsCaM1-1 fused with the N-terminal fragment of YFP) (rice, UniProt Q0JNS6 1-149)
Assay: BiFC, nYFP-OsCaM1-1 and cYFP-GSE5 coexpressed in N. benthamiana leaves
From the text: The coding sequence of GSE5 were amplified by specific primers ycGSE5-F/R, fused with the C-terminal fragment of YFP (cYFP), and then subcloned into the pGWB414 vector (Invitrogen) using in-fusion enzyme (Genebank Biosciences Inc, China). The N-terminal fragment of YFP (nYFP) was amplified from pSY736 using the primers YN-736-F and YN-736-R, fused with the OsCaM1-1 gene, and then subcloned into the pGWB414 vector (Invitrogen) using in-fusion enzyme (Genebank Biosciences Inc, China). nYFP-OsCaM1-1 and cYFP-GSE5 constructs were transformed into Agrobacterium strains GV3101. Transient expression of nYFP-OsCaM1-1 and cYFP-GSE5 in Nicotiana benthamiana leaves and fluorescence observation were conducted as described previously (Wang et al., 2016).

- binding result: binds
B1: cYFP-GSE5 (GSE5, GRAIN SIZE ON CHROMOSOME 5, fused with the C-terminal fragment of YFP) (other)
chain: MGKAARWFRNMWGGGRKEQKGEAPASGGKRWSFGKSSRDSAEAAAAAAAAAAEASGGNAAIARAAEAAWLRSVYADTEREQSKHAIAVAAATAAAADAAVAAAQAAVAVVRLTSKGRSAPVLAATVAGDTRSLAAAAVRIQTAFRGFLAKKALRALKALVKLQALVRGYLVRRQAAATLQSMQALVRAQATVRAHRSGAGAAANLPHLHHAPFWPRRSLQERCAGDDTRSEHGVAAYSRRLSASIESSSYGYDRSPKIVEVDTGRPKSRSSSSRRASSPLLLDAAGCASGGEDWCANSMSSPLPCYLPGGAPPPRIAVPTSRHFPDYDWCALEKARPATAQSTPRYAHAPPTPTKSVCGGGGGGGIHSSPLNCPNYMSNTQSFEAKVRSQSAPKQRPETGGAGAGGGRKRVPLSEVVVVESRASLSGVGMQRSCNRVQEAFNFKTAVVGRLDRSSESGENDRHAFLQRRW
notes: BiFC construct in pGWB414, transiently expressed inside Nicotiana benthamiana leaf cells (not on the cell surface); not shown: C-terminal fragment of YFP (cYFP)
